This is an account of results in patent US20130078188.

One may read the kcat/Km as the second-order rate constant that governs catalysis at low substrate concentration.

The test system of data set [1] is FRET-ACPP 2.
The subject of data set [2] is RACPP1.
The test system of data set [3] is RACPP2.
Data set [4] has as its system Cy7-NH-e9-c(S-Peg12) oDPRSFL-r9-c(Cy5)-CONH2 (5, RACPPDPRSFL).
Data set [5] relates to Cy7-NH-e9-c(S-Peg12) oPPRSFL-r9-c(Cy5)-CONH2 (10, RACPPPPRSFL).
Data set [6] has as its system Cy7-NH-e9-c(S-Peg12)oPLGC(Me)AG-r9-c(Cy5)-CONH2 (20, RACPPPLGC(Me)AG).

Chain of Cy7-NH-e9-c(S-Peg12) oDPRSFL-r9-c(Cy5)-CONH2 (5, RACPPDPRSFL) (chain, as listed by the source): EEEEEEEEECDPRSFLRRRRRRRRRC
Chain of RACPP1 (chain, as listed by the source): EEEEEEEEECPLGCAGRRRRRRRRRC
Chain of Cy7-NH-e9-c(S-Peg12) oPPRSFL-r9-c(Cy5)-CONH2 (10, RACPPPPRSFL) (chain, as listed by the source): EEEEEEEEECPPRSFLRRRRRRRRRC
Chain of MMP-9 (chain, as listed by the source): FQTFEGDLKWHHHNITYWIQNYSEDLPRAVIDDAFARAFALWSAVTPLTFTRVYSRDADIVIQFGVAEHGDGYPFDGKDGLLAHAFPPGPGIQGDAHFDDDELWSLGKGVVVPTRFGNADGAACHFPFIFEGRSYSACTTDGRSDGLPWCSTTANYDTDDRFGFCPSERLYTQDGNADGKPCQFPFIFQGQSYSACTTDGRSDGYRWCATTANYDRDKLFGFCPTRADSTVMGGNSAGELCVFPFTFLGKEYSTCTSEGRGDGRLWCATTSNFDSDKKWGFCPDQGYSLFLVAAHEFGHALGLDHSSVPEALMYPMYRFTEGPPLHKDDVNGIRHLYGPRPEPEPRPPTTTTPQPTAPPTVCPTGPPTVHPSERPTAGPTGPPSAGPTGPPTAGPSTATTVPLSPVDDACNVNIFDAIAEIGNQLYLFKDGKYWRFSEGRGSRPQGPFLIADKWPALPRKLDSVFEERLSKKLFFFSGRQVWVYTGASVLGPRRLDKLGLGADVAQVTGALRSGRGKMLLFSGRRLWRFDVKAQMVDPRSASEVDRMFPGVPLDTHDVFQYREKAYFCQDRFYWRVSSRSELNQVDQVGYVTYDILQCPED
Chain of RACPP2 (chain, as listed by the source): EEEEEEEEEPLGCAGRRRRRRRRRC

Take MMP-9: in data set [1], the “fraction of peptide cleaved, HPLC” value is 87% of the peptide had been cleaved and the “increase of the Cy5 peak, extrapolated to 100% cleavage” value is recorded as “the Cy5 peak increases about 7 fold”. In data set [2], the “decrease in Cy7 re-emission on cleavage, in mouse plasma” value is reported as “decreased Cy7 re-emission by ˜4 fold”; the extent of cleavage result is recorded as “after (red dashed curve)>95% complete cleavage with MMP-9”; the “increase in Cy5 emission on cleavage, in mouse plasma” value is recorded as “increased Cy5 emission by ˜10 fold”; the “increase in the ratio of 670/780 nm emissions on cleavage” value is listed as “net 40-fold increase in the ratio of 670/780 nm emissions”. Further, the “peptide cleavage, tricine SDS-PAGE with Cy5 and Cy7 imaging” value in data set [3] is “All three components (intact uncleaved peptide, r9 and e9 fragments) are well separated and can be seen as distinct bands in the gel”.

As to factor Xa, the kcat/Km in data set [4] amounted to 6200 M⁻¹ s⁻¹. Also, the “kcat/Km (cleavage activity)” value in data set [5] was “no detectable activity towards RACPPPPRSFL”. Further, the “peptide cleavage, SDS-PAGE with Cy5/Cy7 ratio imaging” value in data set [6] is “not cleaved by any of the pro-coagulation enzymes”.

Turning to thrombin, in data set [4], the kcat/Km result was “kcat/km=1.2×10^4 M^-1s^-1” and the “peptide cleavage, SDS-PAGE with Cy5/Cy7 ratio imaging” value is given as “cleaved by thrombin in a time dependent manner”. For the same substance, in data set [5], the “change in Cy5/Cy7 emission ratio on cleavage, in plasma” value is given as 34 fold change in Cy5/Cy7 emission ratio; the “decrease in Cy7 re-emission on cleavage, in plasma” value is reported as 3.8 fold decrease in Cy7 re-emission; the “increase in Cy5 emission on cleavage, in plasma” value is listed as 8.8 fold increase in Cy5 emission; the kcat/Km stood at 7300 M⁻¹ s⁻¹. For the same substance, the “peptide cleavage, SDS-PAGE with Cy5/Cy7 ratio imaging” value in data set [5] was “cleaved by thrombin in a time dependent manner and that RACPPPPRSFL(10) is selective for thrombin”. The “peptide cleavage, SDS-PAGE with Cy5/Cy7 ratio imaging” value in data set [6] is recorded as “not cleaved by any of the pro-coagulation enzymes”.
